± gives the uncertainty stated by the source.
Assay: self-splicing fitness, log relative to wild type (ln ratio); higher = more splicing; Tetrahymena group I intron in knt gene, E. coli kanamycin selection, DiMSum; sequences stand for … in CUCUCU…GGAGGGAAAAGUUAUCAGGCAUGCACCUGGUAGCUAGUCUUUAAACCAAUAGAUUGCAUCGGUUUAAAAGGCAAGACCGUCAAAUUGCGGGAAAGGGGUCAACAGCCGUUCAGUACCAAGUCUCAGGGGAAACUUUGAGAUGGCCUUGCAAAGGGUAUGGUAAUAAGCUGACGGACAUGGUCCUAACCACGCAGCCAAGUCCUAAGUCAACAGAUCUUCUGUUGAUAUGGAUGCAGUUCACAGACUAAAUGUCGGUCGGGGAAGAUGUAUUCUUCUCAUAAGAUAUAGUCGGACCUCUCCUUAAUGGGAGCUAGCGGAUGAAGUGAUGCAACACUGGAGCCGCUGGGAACUAAUUUGUAUGCGAAAGUAUAUUGAUUAGUUUUGGAGUACUCGUGGUCG
In short: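 Fitness was computed with DiMSum as the error-weighted combination of replicate fold changes, kanamycin versus none, each normalised to wild type. The library randomised all eight intron nucleotides of the P1ex region, with the intron placed in the knt kanamycin-resistance gene on pET-22b(+) in E. coli BL21(DE3). Six replicate transformations were grown overnight at 37°C or 30°C on LB agar with or without 25 μg/mL kanamycin, plus 100 μg/mL carbenicillin, 50 μM IPTG and 0.2% rhamnose. Pooled colonies were amplicon-sequenced on an Illumina HiSeq 2500.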

Sequence	self-splicing fitness (ln) (30 °C)	self-splicing fitness (ln) (37 °C)
AUGAAGCAAUAUUACGCAUA	-0.0747 ± 0.071	-0.57 ± 0.082
AUGAAGCAAUAUUACGCAUG	-0.801 ± 0.077	0.175 ± 0.085
AUGAAGCAAUAUUACGCGUA	-0.537 ± 0.061	-0.226 ± 0.07
AUGAAGCAAUAUUACGCUUU	-3.68 ± 0.2	-2.11 ± 0.21
AUGAAGCAAUAUUACGGAUC	-0.696 ± 0.09	-0.0788 ± 0.099
AUGAAGCAAUAUUACGGGAA	-1.83 ± 0.11	-0.953 ± 0.14
AUGAAGCAAUAUUACGGUAA	-1.22 ± 0.065	-0.5 ± 0.088
AUGAAGCAAUAUUACGGUCU	-0.0448 ± 0.069	0.658 ± 0.087
AUGAAGCAAUAUUACGUACC	-0.639 ± 0.067	0.16 ± 0.1
AUGAAGCAAUAUUACGUCAU	-2.43 ± 0.093	-1.19 ± 0.083
AUGAAGCAAUAUUACGUCCC	0.721 ± 0.15	-0.534 ± 0.14
AUGAAGCAAUAUUACGUGUG	-1.18 ± 0.059	-0.763 ± 0.078
AUGCAGCAAUAUUACGAAUG	-2.15 ± 0.17	-2.51 ± 0.28
AUGCAGCAAUAUUACGACCG	-1.66 ± 0.29	-1.07 ± 0.3
AUGCAGCAAUAUUACGACUA	-0.708 ± 0.12	-0.187 ± 0.11
AUGCAGCAAUAUUACGAGGC	-1.94 ± 0.23	-2.34 ± 0.33
AUGCAGCAAUAUUACGAUCG	-1.8 ± 0.084	-1.16 ± 0.11
AUGCAGCAAUAUUACGCAAA	-2.6 ± 0.13	-0.0469 ± 0.14
AUGCAGCAAUAUUACGCUUA	-1.26 ± 0.1	-0.294 ± 0.094
AUGCAGCAAUAUUACGGACU	-0.194 ± 0.073	0.429 ± 0.094
AUGCAGCAAUAUUACGGAGA	-4.25 ± 0.44	-4.21 ± 0.34
AUGCAGCAAUAUUACGGAUA	-2.99 ± 0.17	-2.22 ± 0.17
AUGCAGCAAUAUUACGGAUU	-1.57 ± 0.071	-1.14 ± 0.1
AUGCAGCAAUAUUACGGCGA	-0.313 ± 0.1	0.239 ± 0.13
AUGCAGCAAUAUUACGGCUA	0.452 ± 0.11	0.366 ± 0.12

Sequence	self-splicing fitness (ln) (30 °C)	self-splicing fitness (ln) (37 °C)
AUGCAGCAAUAUUACGGGCA	-0.699 ± 0.11	0.227 ± 0.12
AUGCAGCAAUAUUACGUACU	0.346 ± 0.055	0.441 ± 0.07
AUGCAGCAAUAUUACGUGGG	–	-2.97 ± 0.28
AUGCAGCAAUAUUACGUUAU	-2.45 ± 0.079	-1.24 ± 0.078
AUGCAGCAAUAUUACGUUGC	-4.01 ± 0.18	-2.25 ± 0.24
AUGGAGCAAUAUUACGAGGG	-3.96 ± 0.35	-2.55 ± 0.42
AUGGAGCAAUAUUACGCCUU	-2.22 ± 0.18	-2.41 ± 0.3
AUGGAGCAAUAUUACGCGUG	-3.24 ± 0.16	-1.15 ± 0.14
AUGGAGCAAUAUUACGCUAU	-3.89 ± 0.15	-2.4 ± 0.22
AUGGAGCAAUAUUACGGCUU	-2.98 ± 0.29	-1.83 ± 0.38
AUGGAGCAAUAUUACGGGCC	-2.63 ± 0.39	–
AUGGAGCAAUAUUACGGGUC	-4.63 ± 0.29	-3.52 ± 0.28
AUGGAGCAAUAUUACGGUGA	-2.9 ± 0.44	–
AUGGAGCAAUAUUACGUUAC	-3.1 ± 0.25	–
AUGGAGCAAUAUUACGUUGA	–	-2.38 ± 0.2
AUGGAGCAAUAUUACGUUGU	-2.69 ± 0.17	-2.48 ± 0.23
AUGUAGCAAUAUUACGAAUA	-2.75 ± 0.26	-1.22 ± 0.21
AUGUAGCAAUAUUACGACUU	-0.0543 ± 0.089	-0.312 ± 0.088
AUGUAGCAAUAUUACGAGCU	-0.582 ± 0.14	-0.987 ± 0.2
AUGUAGCAAUAUUACGCACC	-1.63 ± 0.15	-0.228 ± 0.18
AUGUAGCAAUAUUACGCCCG	-0.83 ± 0.22	-0.891 ± 0.33
AUGUAGCAAUAUUACGCCGU	-1.43 ± 0.14	-0.29 ± 0.14
AUGUAGCAAUAUUACGCGUA	-1.66 ± 0.13	-0.708 ± 0.14
AUGUAGCAAUAUUACGCGUU	-3.57 ± 0.18	-1.99 ± 0.17
AUGUAGCAAUAUUACGCUUC	-2.5 ± 0.23	-2.2 ± 0.28

Sequence	self-splicing fitness (ln) (30 °C)	self-splicing fitness (ln) (37 °C)
AUGUAGCAAUAUUACGGAAC	–	-1.16 ± 0.41
AUGUAGCAAUAUUACGGACG	-3.24 ± 0.2	-1.09 ± 0.13
AUGUAGCAAUAUUACGGACU	-0.734 ± 0.11	-0.231 ± 0.14
AUGUAGCAAUAUUACGGCAG	-0.715 ± 0.073	0.288 ± 0.11
AUGUAGCAAUAUUACGGGGA	-2.26 ± 0.21	-2.48 ± 0.21
AUGUAGCAAUAUUACGGGUC	-3.49 ± 0.4	-2.95 ± 0.43
AUGUAGCAAUAUUACGGUAU	-1.24 ± 0.093	-0.0188 ± 0.11
AUGUAGCAAUAUUACGGUGG	-3.1 ± 0.27	-2.77 ± 0.24
AUGUAGCAAUAUUACGUAGU	-2.89 ± 0.18	-1.42 ± 0.15
AUGUAGCAAUAUUACGUCAC	–	-2.81 ± 0.47
AUGUAGCAAUAUUACGUCAG	-3.5 ± 0.18	-2.25 ± 0.16
AUGUAGCAAUAUUACGUGCA	-0.921 ± 0.13	-1.01 ± 0.12
AUGUAGCAAUAUUACGUUGC	-3.43 ± 0.27	-3.08 ± 0.32
AUGUAGCAAUAUUACGUUUG	-3.35 ± 0.23	-2.72 ± 0.25
AUUAAGCAAUAUUACGAACU	-0.318 ± 0.12	0.315 ± 0.16
AUUAAGCAAUAUUACGACUU	0.276 ± 0.082	-0.0124 ± 0.11
AUUAAGCAAUAUUACGAUCG	-2.33 ± 0.12	-0.671 ± 0.12
AUUAAGCAAUAUUACGAUGA	-0.766 ± 0.11	-0.613 ± 0.12
AUUAAGCAAUAUUACGCACA	-0.525 ± 0.12	-0.202 ± 0.13
AUUAAGCAAUAUUACGCACG	-1.37 ± 0.16	-0.648 ± 0.17
AUUAAGCAAUAUUACGCAUA	-1.98 ± 0.24	-1.32 ± 0.22
AUUAAGCAAUAUUACGCCAC	–	-1.53 ± 0.39
AUUAAGCAAUAUUACGCCCU	-0.0606 ± 0.33	-0.149 ± 0.28
AUUAAGCAAUAUUACGCCGC	–	-2.04 ± 0.47
AUUAAGCAAUAUUACGCCUU	-0.293 ± 0.16	0.373 ± 0.19

Sequence	self-splicing fitness (ln) (30 °C)	self-splicing fitness (ln) (37 °C)
AUUAAGCAAUAUUACGCGAG	-1.27 ± 0.1	-0.38 ± 0.097
AUUAAGCAAUAUUACGCGAU	-3.33 ± 0.23	-2.63 ± 0.34
AUUAAGCAAUAUUACGCUAG	-1.96 ± 0.16	-0.736 ± 0.18
AUUAAGCAAUAUUACGGGAG	-3.06 ± 0.23	-1.89 ± 0.18
AUUAAGCAAUAUUACGGUGA	-1.3 ± 0.13	-0.588 ± 0.14
AUUAAGCAAUAUUACGGUUC	-3.04 ± 0.35	-0.609 ± 0.31
AUUAAGCAAUAUUACGUAAA	-1.29 ± 0.12	-1.15 ± 0.14
AUUAAGCAAUAUUACGUAGU	-1.53 ± 0.071	-0.166 ± 0.085
AUUAAGCAAUAUUACGUCAG	-3.01 ± 0.24	-1.85 ± 0.21
AUUAAGCAAUAUUACGUGAG	-0.882 ± 0.049	-0.33 ± 0.081
AUUAAGCAAUAUUACGUGCU	-1.58 ± 0.15	-0.835 ± 0.14
AUUCAGCAAUAUUACGACAG	-2.39 ± 0.16	-0.849 ± 0.17
AUUCAGCAAUAUUACGACGA	-0.537 ± 0.1	-0.53 ± 0.12
AUUCAGCAAUAUUACGACGC	-0.246 ± 0.11	0.397 ± 0.14
AUUCAGCAAUAUUACGACUU	-0.122 ± 0.1	0.27 ± 0.11
AUUCAGCAAUAUUACGAGAG	-2.65 ± 0.11	-1.38 ± 0.1
AUUCAGCAAUAUUACGAGUG	-1.37 ± 0.062	-1.02 ± 0.082
AUUCAGCAAUAUUACGAUCC	-0.321 ± 0.19	-0.287 ± 0.25
AUUCAGCAAUAUUACGAUUA	-0.138 ± 0.097	0.146 ± 0.089
AUUCAGCAAUAUUACGAUUC	-1.62 ± 0.059	-0.407 ± 0.077
AUUCAGCAAUAUUACGAUUG	-1.88 ± 0.16	-1.05 ± 0.2
AUUCAGCAAUAUUACGAUUU	0.203 ± 0.088	0.898 ± 0.11
AUUCAGCAAUAUUACGCAAU	-2.4 ± 0.23	-0.772 ± 0.22

From the supplement of paper PMC7877785
